Our source for the normalised SPOT signal, Boehringer light units (BLU); mean over the file's lines of this peptide values is paper PMC314469, “Protein Interaction Networks by Proteome Peptide Scanning” (PLoS Biology, 2004).

Sequences and labels used below:
T1: Rvs167 SH3 (RV167_YEAST), P39743
T1 chain: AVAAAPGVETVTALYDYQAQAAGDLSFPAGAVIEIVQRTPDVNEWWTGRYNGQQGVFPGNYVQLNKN

T2: Boi1 SH3 (BOI1_YEAST), P38041
T2 chain: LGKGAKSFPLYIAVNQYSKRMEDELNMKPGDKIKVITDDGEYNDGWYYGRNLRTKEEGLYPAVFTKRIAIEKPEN

T3: Myo5 SH3 (MYO5_YEAST), Q04439
T3 chain: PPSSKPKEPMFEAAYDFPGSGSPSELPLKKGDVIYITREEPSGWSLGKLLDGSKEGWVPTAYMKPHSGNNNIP

T4: Yhr016c SH3 (YSC84_YEAST), P32793
T4 chain: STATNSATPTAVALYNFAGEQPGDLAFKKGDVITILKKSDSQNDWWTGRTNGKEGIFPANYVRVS

T5: Yfr024 SH3 (LSB3_YEAST), P43603
T5 chain: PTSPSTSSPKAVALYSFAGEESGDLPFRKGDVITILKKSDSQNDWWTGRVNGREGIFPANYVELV

T6: Boi2 SH3 (BOI2_YEAST), P39969
T6 chain: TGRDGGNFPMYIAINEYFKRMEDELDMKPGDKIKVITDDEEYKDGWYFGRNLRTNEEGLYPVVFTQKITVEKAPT

In the first assay the target is T1, Rvs167 SH3 (RV167_YEAST), P39743. Kind of assay: SPOT array.
LAYERPLPDLPSTI [YKR027W 747-760] gave a normalised SPOT signal, Boehringer light units (BLU); mean over the file's lines of this peptide of 3530.
LAAHKTKPSIPPKK [YPR171W 350-363] came in with a normalised SPOT signal, Boehringer light units (BLU); mean over the file's lines of this peptide of 16.5.
The molecule KVNFRRIPTGPDSP [YIL131C 136-149] returned a normalised SPOT signal, Boehringer light units (BLU); mean over the file's lines of this peptide of 160.
The molecule LASDKGLPMIPAFV [YCL040W 56-69] gave a normalised SPOT signal, Boehringer light units (BLU); mean over the file's lines of this peptide of 51.5.
For the molecule LAPKREAPKPPANT [YJL095W 802-815], the normalised SPOT signal, Boehringer light units (BLU); mean over the file's lines of this peptide was determined as 69.8.
KVIRKGSPKSPAMV [YKL170W 23-36] returned a normalised SPOT signal, Boehringer light units (BLU); mean over the file's lines of this peptide of 200.
Molecule KVLIKTLPVLPEAR [YNL271C 1679-1692] yielded a normalised SPOT signal, Boehringer light units (BLU); mean over the file's lines of this peptide of 84.2.

A further assay concerns the target T2, Boi1 SH3 (BOI1_YEAST), P38041. Kind of assay: SPOT array.
LAYERPLPDLPSTI [YKR027W 747-760] returned a normalised SPOT signal, Boehringer light units (BLU); mean over the file's lines of this peptide of 41.8.
LAAHKTKPSIPPKK [YPR171W 350-363] displayed a normalised SPOT signal, Boehringer light units (BLU); mean over the file's lines of this peptide of 477.
KVNFRRIPTGPDSP [YIL131C 136-149] registered a normalised SPOT signal, Boehringer light units (BLU); mean over the file's lines of this peptide of 1120.
The molecule LASDKGLPMIPAFV [YCL040W 56-69] displayed a normalised SPOT signal, Boehringer light units (BLU); mean over the file's lines of this peptide of 94.4.
In the case of LAPKREAPKPPANT [YJL095W 802-815], the normalised SPOT signal, Boehringer light units (BLU); mean over the file's lines of this peptide was 179.
On the same count and under the same terms, next, KVIRKGSPKSPAMV [YKL170W 23-36]: 457; KVLIKTLPVLPEAR [YNL271C 1679-1692]: 142.

The target of the next assay is T3, Myo5 SH3 (MYO5_YEAST), Q04439. Kind of assay: SPOT array.
LAYERPLPDLPSTI [YKR027W 747-760]: the normalised SPOT signal, Boehringer light units (BLU); mean over the file's lines of this peptide is 132.
Consider LAAHKTKPSIPPKK [YPR171W 350-363], for which the normalised SPOT signal, Boehringer light units (BLU); mean over the file's lines of this peptide is 249.
KVNFRRIPTGPDSP [YIL131C 136-149] displayed a normalised SPOT signal, Boehringer light units (BLU); mean over the file's lines of this peptide of 503.
On the same count and under the same terms, with LASDKGLPMIPAFV [YCL040W 56-69] the figure was 79.9; with LAPKREAPKPPANT [YJL095W 802-815], 116000; with KVIRKGSPKSPAMV [YKL170W 23-36], 496.
As to KVLIKTLPVLPEAR [YNL271C 1679-1692], the normalised SPOT signal, Boehringer light units (BLU); mean over the file's lines of this peptide amounted to 237.

A further assay deals with T4, Yhr016c SH3 (YSC84_YEAST), P32793. Put plainly: SPOT array.
As to LAYERPLPDLPSTI [YKR027W 747-760], the normalised SPOT signal, Boehringer light units (BLU); mean over the file's lines of this peptide was 8470.
The molecule LAAHKTKPSIPPKK [YPR171W 350-363] displayed a normalised SPOT signal, Boehringer light units (BLU); mean over the file's lines of this peptide of 36.
In turn, KVNFRRIPTGPDSP [YIL131C 136-149] had a normalised SPOT signal, Boehringer light units (BLU); mean over the file's lines of this peptide of 44.4.
On the same count and under the same terms, with LASDKGLPMIPAFV [YCL040W 56-69] the figure was 62.8; with LAPKREAPKPPANT [YJL095W 802-815], 29.7.
With KVIRKGSPKSPAMV [YKL170W 23-36], the normalised SPOT signal, Boehringer light units (BLU); mean over the file's lines of this peptide is 8.7.
KVLIKTLPVLPEAR [YNL271C 1679-1692] gave a normalised SPOT signal, Boehringer light units (BLU); mean over the file's lines of this peptide of 0.

For a further assay, the target named is Sho1 SH3 (SHO1_YEAST), P40073. Put plainly: SPOT array.
Chain of Sho1 SH3 (SHO1_YEAST), P40073 (P40073 295-366): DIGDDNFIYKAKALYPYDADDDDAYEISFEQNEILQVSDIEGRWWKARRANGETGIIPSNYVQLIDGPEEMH
The molecule LAYERPLPDLPSTI [YKR027W 747-760] showed a normalised SPOT signal, Boehringer light units (BLU); mean over the file's lines of this peptide of 64100.
Molecule LAAHKTKPSIPPKK [YPR171W 350-363] displayed a normalised SPOT signal, Boehringer light units (BLU); mean over the file's lines of this peptide of 76.5.
The same measure, in the same setting: next, KVNFRRIPTGPDSP [YIL131C 136-149]: 119; LASDKGLPMIPAFV [YCL040W 56-69]: 15200; LAPKREAPKPPANT [YJL095W 802-815]: 71.2.
Same read-out and setting: next, KVIRKGSPKSPAMV [YKL170W 23-36]: 49.9; KVLIKTLPVLPEAR [YNL271C 1679-1692]: 3050.

Another assay addresses T5, Yfr024 SH3 (LSB3_YEAST), P43603. Put plainly: SPOT array.
In turn, LAYERPLPDLPSTI [YKR027W 747-760] came in with a normalised SPOT signal, Boehringer light units (BLU); mean over the file's lines of this peptide of 4460.
Same read-out and setting: with LAAHKTKPSIPPKK [YPR171W 350-363] the figure was 1730; with KVNFRRIPTGPDSP [YIL131C 136-149], 234.
The molecule LASDKGLPMIPAFV [YCL040W 56-69] yielded a normalised SPOT signal, Boehringer light units (BLU); mean over the file's lines of this peptide of 48.3.
Still for that read-out and setting: next, LAPKREAPKPPANT [YJL095W 802-815]: 47.5.
With KVIRKGSPKSPAMV [YKL170W 23-36], the normalised SPOT signal, Boehringer light units (BLU); mean over the file's lines of this peptide came out at 180.
Regarding KVLIKTLPVLPEAR [YNL271C 1679-1692], the normalised SPOT signal, Boehringer light units (BLU); mean over the file's lines of this peptide is 251.

Another assay concerns the target T6, Boi2 SH3 (BOI2_YEAST), P39969. Kind of assay: SPOT array.
Molecule LAYERPLPDLPSTI [YKR027W 747-760] displayed a normalised SPOT signal, Boehringer light units (BLU); mean over the file's lines of this peptide of 14.3.
Turning to LAAHKTKPSIPPKK [YPR171W 350-363], the normalised SPOT signal, Boehringer light units (BLU); mean over the file's lines of this peptide was determined as 18.8.
Consider KVNFRRIPTGPDSP [YIL131C 136-149], for which the normalised SPOT signal, Boehringer light units (BLU); mean over the file's lines of this peptide amounted to 24.3.
The same measure, in the same setting: next, LASDKGLPMIPAFV [YCL040W 56-69]: 134.
As for LAPKREAPKPPANT [YJL095W 802-815], the normalised SPOT signal, Boehringer light units (BLU); mean over the file's lines of this peptide was 28.5.
On to KVIRKGSPKSPAMV [YKL170W 23-36], for which the normalised SPOT signal, Boehringer light units (BLU); mean over the file's lines of this peptide was determined as 0.
The molecule KVLIKTLPVLPEAR [YNL271C 1679-1692] gave a normalised SPOT signal, Boehringer light units (BLU); mean over the file's lines of this peptide of 5.4.
